The values below come from patent US12723106 (dated 2026).

Where two headings read alike, the source gives them in different places.

A word on the Kd: it is the concentration at which binding is half-saturated. A lower Kd goes with higher affinity.

Experiment [1] has as its target T1, human IL4 (human, UniProt P05112).
T1 chain: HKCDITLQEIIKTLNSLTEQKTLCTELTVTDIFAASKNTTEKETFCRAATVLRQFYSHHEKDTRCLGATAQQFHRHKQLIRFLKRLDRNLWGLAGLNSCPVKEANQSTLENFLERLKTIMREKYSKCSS
The experiment can be described thus: SPR. Background: Surface plasmon resonance follows binding to a sensor surface in real time, without labels.

For experiment [2], the target named is T1, human IL4. The experiment can be described thus: SPR.

B1: sLC-Tandem-(anti-IL4xanti-IL13)-ΔPCL1-huIgG1, IL4 arm (antibody)
chain 1: not shown
chain 2: DIQMTQSPASLSVSVGDTITLTCHASQNIDVWLSWFQQKPGNIPKLLIYKASNLHTGVPSRFSGSGSGTGFTLTISSLQPEDIATYYCQQAHSYPFTFGGGTKLEIKRTVAAPSVFIFPPSDEQLKSGTASVVCLLNNFYPREAKVQWKVDNALQSGNSQESVTEQDSKDSTYSLSSTLTLSKADYEKHKVYACEVTHQGLSSPVTKSFNRGEC
B1: the equilibrium dissociation constant (Kd) was found to be 2.29 pM with human IL4 [1] and 2.75 pM in the experiment with human IL4 [2].

B2: sLC-Tandem-(anti-IL4xanti-IL13)-His8-PCL1-huIgG1 with Furin, IL4 arm (antibody)
chain 1: not shown
chain 2: DIQMTQSPASLSVSVGDTITLTCHASQNIDVWLSWFQQKPGNIPKLLIYKASNLHTGVPSRFSGSGSGTGFTLTISSLQPEDIATYYCQQAHSYPFTFGGGTKLEIKRTVAAPSVFIFPPSDEQLKSGTASVVCLLNNFYPREAKVQWKVDNALQSGNSQESVTEQDSKDSTYSLSSTLTLSKADYEKHKVYACEVTHQGLSSPVTKSFNRGEC
Turning to B2, the Kd with human IL4 [1] amounted to 1.53 pM.

B3: sLC-Tandem-(anti-IL4xanti-IL13)-PCL2-huIgG1, IL4 arm (antibody)
chain 1: not shown
chain 2: DIQMTQSPASLSVSVGDTITLTCHASQNIDVWLSWFQQKPGNIPKLLIYKASNLHTGVPSRFSGSGSGTGFTLTISSLQPEDIATYYCQQAHSYPFTFGGGTKLEIKRTVAAPSVFIFPPSDEQLKSGTASVVCLLNNFYPREAKVQWKVDNALQSGNSQESVTEQDSKDSTYSLSSTLTLSKADYEKHKVYACEVTHQGLSSPVTKSFNRGEC
Regarding B3, the dissociation constant Kd in the experiment with human IL4 [1] was 1.05 pM; in the experiment with human IL4 [2], 1.33 pM.

B4: sLC-Tandem-(anti-IL4xanti-IL13)-PCL1-huIgG1, IL4 arm (antibody)
chain 1: not shown
chain 2: DIQMTQSPASLSVSVGDTITLTCHASQNIDVWLSWFQQKPGNIPKLLIYKASNLHTGVPSRFSGSGSGTGFTLTISSLQPEDIATYYCQQAHSYPFTFGGGTKLEIKRTVAAPSVFIFPPSDEQLKSGTASVVCLLNNFYPREAKVQWKVDNALQSGNSQESVTEQDSKDSTYSLSSTLTLSKADYEKHKVYACEVTHQGLSSPVTKSFNRGEC
Consider B4, for which the figures for the Kd with human IL4 [1] and with human IL4 [2] were 0.901 pM and 1.42 pM, respectively.

B5: sLC-Tandem-(anti-IL4xanti-IL13)-His8-PCL1-huIgG1 with Furin-KDEL, IL4 arm (antibody)
chain 1: not shown
chain 2: DIQMTQSPASLSVSVGDTITLTCHASQNIDVWLSWFQQKPGNIPKLLIYKASNLHTGVPSRFSGSGSGTGFTLTISSLQPEDIATYYCQQAHSYPFTFGGGTKLEIKRTVAAPSVFIFPPSDEQLKSGTASVVCLLNNFYPREAKVQWKVDNALQSGNSQESVTEQDSKDSTYSLSSTLTLSKADYEKHKVYACEVTHQGLSSPVTKSFNRGEC
In turn, B5 registered a dissociation constant Kd in the experiment with human IL4 [1] of 1.86 pM.

B6: Tandem-(anti-IL4xanti-IL13)-huIgG1, IL4 arm (antibody)
chain 1: not shown
chain 2: DIQMTQSPASLSVSVGDTITLTCHASQNIDVWLSWFQQKPGNIPKLLIYKASNLHTGVPSRFSGSGSGTGFTLTISSLQPEDIATYYCQQAHSYPFTFGGGTKLEIKRTVAAPSVFIFPPSDEQLKSGTASVVCLLNNFYPREAKVQWKVDNALQSGNSQESVTEQDSKDSTYSLSSTLTLSKADYEKHKVYACEVTHQGLSSPVTKSFNRGEC
Take B6: the Kd with human IL4 [1] was found to be 2.32 pM.
